T1: cynomolgus monkey FcγRIIa1 extracellular domain, C-terminal His-tag (cynomolgus monkey)
T1 construct: also called cyno FcγRIIa1; cynoFcgRIIa1; not shown: His-tag added to C-terminus
T1 chain: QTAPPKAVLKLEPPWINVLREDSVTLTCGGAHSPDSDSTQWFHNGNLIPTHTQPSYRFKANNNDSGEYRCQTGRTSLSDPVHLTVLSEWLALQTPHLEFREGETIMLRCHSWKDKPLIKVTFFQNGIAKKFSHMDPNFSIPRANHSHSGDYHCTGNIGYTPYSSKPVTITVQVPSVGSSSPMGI

T2: human FcγRIIb extracellular domain, C-terminal His-tag (human, UniProt P31994 43-217)
T2 construct: also called humanFcgRIIb; not shown: His-tag added to C-terminus
T2 sequence: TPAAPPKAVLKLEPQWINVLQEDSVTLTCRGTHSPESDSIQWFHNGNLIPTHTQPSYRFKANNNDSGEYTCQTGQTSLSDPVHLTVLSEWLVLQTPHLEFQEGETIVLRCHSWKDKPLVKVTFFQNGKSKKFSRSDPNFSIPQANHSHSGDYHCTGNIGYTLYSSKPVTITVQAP

T3: human FcγRIIaR extracellular domain, C-terminal His-tag (human, UniProt P12318 34-217)
T3 construct: also called human FcγRIIa (type R); FcgRIIaR; not shown: His-tag added to C-terminus
T3 chain: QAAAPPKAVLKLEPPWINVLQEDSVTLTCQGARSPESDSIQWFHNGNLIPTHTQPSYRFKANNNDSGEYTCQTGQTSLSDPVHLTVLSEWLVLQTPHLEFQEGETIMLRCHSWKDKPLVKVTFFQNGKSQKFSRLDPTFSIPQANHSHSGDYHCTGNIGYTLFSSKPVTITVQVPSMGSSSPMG

T4: cynomolgus monkey FcγRIIa2 extracellular domain, C-terminal His-tag (cynomolgus monkey)
T4 construct: also called cyno FcγRIIa2; cynoFcgRIIa2; not shown: His-tag added to C-terminus
T4 chain: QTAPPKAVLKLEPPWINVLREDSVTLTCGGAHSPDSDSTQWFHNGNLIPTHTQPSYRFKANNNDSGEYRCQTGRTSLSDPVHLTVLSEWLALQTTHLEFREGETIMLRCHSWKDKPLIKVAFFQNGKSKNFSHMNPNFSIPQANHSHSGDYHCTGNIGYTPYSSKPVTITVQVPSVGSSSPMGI

T5: human FcγRIIaH extracellular domain, C-terminal His-tag (human, UniProt P12318 34-217)
T5 construct: also called human FcγRIIa (type H); FcgRIIaH; not shown: His-tag added to C-terminus
T5 sequence: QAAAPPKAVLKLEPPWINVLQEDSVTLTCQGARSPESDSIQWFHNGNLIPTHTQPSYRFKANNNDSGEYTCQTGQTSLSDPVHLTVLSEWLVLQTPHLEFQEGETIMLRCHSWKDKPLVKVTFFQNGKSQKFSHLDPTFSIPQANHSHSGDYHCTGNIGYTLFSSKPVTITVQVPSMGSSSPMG


Key:
Assay in all cases: SPR (BIACORE); KD of SG1 / KD of variant
[1] = target: T1, cynomolgus monkey FcγRIIa1 …
[2] = target: T2, human FcγRIIb extracellular domain, …
[3] = target: T3, human FcγRIIaR extracellular domain, …
[4] = target: T4, cynomolgus monkey FcγRIIa2 …
[5] = target: T5, human FcγRIIaH extracellular domain, …
[6] = target: T6, cynomolgus monkey FcγRIIIaS extracellular domain, C-terminal His-tag (cynomolgus monkey, UniProt A3RFZ7 21-206 (rhesus entry))
T6 construct: also called cyno FcγRIIIaS; cynoFcγRIIIaS; not shown: His-tag added to C-terminus

[7] = target: T7, human FcγRIIIaV extracellular domain, C-terminal His-tag (human, UniProt P08637 17-208)
T7 construct: also called FcgRIIIaV; not shown: His-tag added to C-terminus
T7 sequence (P08637 17-208 F176V): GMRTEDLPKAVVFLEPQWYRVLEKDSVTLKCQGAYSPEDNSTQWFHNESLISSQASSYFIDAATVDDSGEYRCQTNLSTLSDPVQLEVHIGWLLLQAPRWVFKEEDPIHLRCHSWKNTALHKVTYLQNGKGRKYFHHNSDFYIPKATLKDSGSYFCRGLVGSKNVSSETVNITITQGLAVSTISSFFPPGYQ

T6 sequence (A3RFZ7 21-206): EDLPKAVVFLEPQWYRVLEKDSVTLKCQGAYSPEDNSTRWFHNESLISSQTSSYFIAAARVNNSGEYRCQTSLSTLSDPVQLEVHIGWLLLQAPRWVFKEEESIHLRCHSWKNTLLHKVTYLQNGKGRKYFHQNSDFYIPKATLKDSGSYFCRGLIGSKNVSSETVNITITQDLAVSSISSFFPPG

Binder | KD fold (SG1 = 1) [1] | KD fold (SG1 = 1) [2] | KD fold (SG1 = 1) [3] | KD fold (SG1 = 1) [4] | KD fold (SG1 = 1) [5] | KD fold (SG1 = 1) [6] | KD fold (SG1 = 1) [7]
MS_M103205H795-SG1/M103202L889-SK1 (antibody, human IgG1, kappa, Parent antibody with SG1 human heavy chain constant region; also called MS1032LO06-SG1) heavy: not shown light: DIVMTQSPATLSLSPGERATLSCTSSQSVYHANWLSWFQQKPGQPPKLLIYWASTLAYGVPSRFSGSGSGTDFTLTISSLQPEDAATYYCAGGYGGGRYAFGQGTKVEIKRTVAAPSVFIFPPSDEQLKSGTASVVCLLNNFYPREAKVQWKVDNALQSGNSQESVTEQDSKDSTYSLSSTLTLSKADYEKHKVYACEVTHQGLSSPVTKSFNRGEC | 1 fold | 1 fold | 1 fold | 1 fold | 1 fold | 1 fold | 1 fold
M103205H795-MY101 / M103202L889-SK1 (antibody, human IgG1, kappa, CH with G236N/H268E/A330K/P396M against SG1 (EU numbering); also called MS1032LO06-MY101) heavy: QVTLKESGPVLVKPTETLTLTCTVSGIDLSHDDISWVRQAPGKGLEWVGIISYAGSTYYASWAKGRLTISKDTSKNQVVLTMTNMDPVDTATYYCARGVPAYSHGGDLWGQGTLVTVSSASTKGPSVFPLAPSSKSTSGGTAALGCLVKDYFPEPVTVSWNSGALTSGVHTFPAVLQSSGLYSLSSVVTVPSSSLGTQTYICNVNHKPSNTKVDKKVEPKSCDKTHTCPPCPAPELLNGPSVFLFPPKPKDTLMISRTPEVTCVVVDVSEEDPEVKFNWYVDGVEVHNAKTKPREEQYNSTYRVVSVLTVLHQDWLNGKEYKCKVSNKALPKPIEKTISKAKGQPREPQVYTLPPSREEMTKNQVSLTCLVKGFYPSDIAVEWESNGQPENNYKTTPMVLDSDGSFFLYSKLTVDKSRWQQGNVFSCSVMHEALHNHYTQKSLSLSP light: DIVMTQSPATLSLSPGERATLSCTSSQSVYHANWLSWFQQKPGQPPKLLIYWASTLAYGVPSRFSGSGSGTDFTLTISSLQPEDAATYYCAGGYGGGRYAFGQGTKVEIKRTVAAPSVFIFPPSDEQLKSGTASVVCLLNNFYPREAKVQWKVDNALQSGNSQESVTEQDSKDSTYSLSSTLTLSKADYEKHKVYACEVTHQGLSSPVTKSFNRGEC | 2.9 fold | 9.4 fold | 1.3 fold | 4.3 fold | 1.4 fold | 0.11 fold | 0.07 fold
M103205H795-MY201 / M103202L889-SK1 (antibody, human IgG1, kappa, CH with G236N/H268D/A330K against SG1 (EU numbering); also called MS1032LO06-MY201) heavy: QVTLKESGPVLVKPTETLTLTCTVSGIDLSHDDISWVRQAPGKGLEWVGIISYAGSTYYASWAKGRLTISKDTSKNQVVLTMTNMDPVDTATYYCARGVPAYSHGGDLWGQGTLVTVSSASTKGPSVFPLAPSSKSTSGGTAALGCLVKDYFPEPVTVSWNSGALTSGVHTFPAVLQSSGLYSLSSVVTVPSSSLGTQTYICNVNHKPSNTKVDKKVEPKSCDKTHTCPPCPAPELLNGPSVFLFPPKPKDTLMISRTPEVTCVVVDVSDEDPEVKFNWYVDGVEVHNAKTKPREEQYNSTYRVVSVLTVLHQDWLNGKEYKCKVSNKALPKPIEKTISKAKGQPREPQVYTLPPSREEMTKNQVSLTCLVKGFYPSDIAVEWESNGQPENNYKTTPPVLDSDGSFFLYSKLTVDKSRWQQGNVFSCSVMHEALHNHYTQKSLSLSP light: DIVMTQSPATLSLSPGERATLSCTSSQSVYHANWLSWFQQKPGQPPKLLIYWASTLAYGVPSRFSGSGSGTDFTLTISSLQPEDAATYYCAGGYGGGRYAFGQGTKVEIKRTVAAPSVFIFPPSDEQLKSGTASVVCLLNNFYPREAKVQWKVDNALQSGNSQESVTEQDSKDSTYSLSSTLTLSKADYEKHKVYACEVTHQGLSSPVTKSFNRGEC | 2.3 fold | 4.2 fold | 0.6 fold | 3.6 fold | 0.8 fold | 0.06 fold | 0.03 fold

Second part, the binder after the results:

KD fold (SG1 = 1) [1] | KD fold (SG1 = 1) [2] | KD fold (SG1 = 1) [3] | KD fold (SG1 = 1) [4] | KD fold (SG1 = 1) [5] | KD fold (SG1 = 1) [6] | KD fold (SG1 = 1) [7] | Binder
1.6 fold | 2 fold | 3.8 fold | 3 fold | 2.4 fold | 0.24 fold | 0.16 fold | M103205H795-MY335 / M103202L889-SK1 (antibody, human IgG1, kappa, CH with G236T/H268D/Q311R/A330K/D413K against SG1 (EU numbering); also called MS1032LO06-MY335) heavy: QVTLKESGPVLVKPTETLTLTCTVSGIDLSHDDISWVRQAPGKGLEWVGIISYAGSTYYASWAKGRLTISKDTSKNQVVLTMTNMDPVDTATYYCARGVPAYSHGGDLWGQGTLVTVSSASTKGPSVFPLAPSSKSTSGGTAALGCLVKDYFPEPVTVSWNSGALTSGVHTFPAVLQSSGLYSLSSVVTVPSSSLGTQTYICNVNHKPSNTKVDKKVEPKSCDKTHTCPPCPAPELLTGPSVFLFPPKPKDTLMISRTPEVTCVVVDVSDEDPEVKFNWYVDGVEVHNAKTKPREEQYNSTYRVVSVLTVLHRDWLNGKEYKCKVSNKALPKPIEKTISKAKGQPREPQVYTLPPSREEMTKNQVSLTCLVKGFYPSDIAVEWESNGQPENNYKTTPPVLDSDGSFFLYSKLTVKKSRWQQGNVFSCSVMHEALHNHYTQKSLSLSP light: DIVMTQSPATLSLSPGERATLSCTSSQSVYHANWLSWFQQKPGQPPKLLIYWASTLAYGVPSRFSGSGSGTDFTLTISSLQPEDAATYYCAGGYGGGRYAFGQGTKVEIKRTVAAPSVFIFPPSDEQLKSGTASVVCLLNNFYPREAKVQWKVDNALQSGNSQESVTEQDSKDSTYSLSSTLTLSKADYEKHKVYACEVTHQGLSSPVTKSFNRGEC
3.6 fold | 8.2 fold | 0.8 fold | 4.6 fold | 1.5 fold | 0.06 fold | 0.06 fold | M103205H795-MY205 / M103202L889-SK1 (antibody, human IgG1, kappa, CH with G236N/H268D/Q295L/A330K against SG1 (EU numbering); also called MS1032LO06-MY205) heavy: QVTLKESGPVLVKPTETLTLTCTVSGIDLSHDDISWVRQAPGKGLEWVGIISYAGSTYYASWAKGRLTISKDTSKNQVVLTMTNMDPVDTATYYCARGVPAYSHGGDLWGQGTLVTVSSASTKGPSVFPLAPSSKSTSGGTAALGCLVKDYFPEPVTVSWNSGALTSGVHTFPAVLQSSGLYSLSSVVTVPSSSLGTQTYICNVNHKPSNTKVDKKVEPKSCDKTHTCPPCPAPELLNGPSVFLFPPKPKDTLMISRTPEVTCVVVDVSDEDPEVKFNWYVDGVEVHNAKTKPREELYNSTYRVVSVLTVLHQDWLNGKEYKCKVSNKALPKPIEKTISKAKGQPREPQVYTLPPSREEMTKNQVSLTCLVKGFYPSDIAVEWESNGQPENNYKTTPPVLDSDGSFFLYSKLTVDKSRWQQGNVFSCSVMHEALHNHYTQKSLSLSP light: DIVMTQSPATLSLSPGERATLSCTSSQSVYHANWLSWFQQKPGQPPKLLIYWASTLAYGVPSRFSGSGSGTDFTLTISSLQPEDAATYYCAGGYGGGRYAFGQGTKVEIKRTVAAPSVFIFPPSDEQLKSGTASVVCLLNNFYPREAKVQWKVDNALQSGNSQESVTEQDSKDSTYSLSSTLTLSKADYEKHKVYACEVTHQGLSSPVTKSFNRGEC

Source: US20200317768A1 (published 2020)
